Results: patent publication US20210087258A1 (UNIVERSITY OF TOKYO, published 2021)

Biological target: T1, P1-2 domain of VP1 of human norovirus (GII.4 strain) (human norovirus (GII.4 strain))
T1 construct: also called VP1 P1-2 domain
T1 chain: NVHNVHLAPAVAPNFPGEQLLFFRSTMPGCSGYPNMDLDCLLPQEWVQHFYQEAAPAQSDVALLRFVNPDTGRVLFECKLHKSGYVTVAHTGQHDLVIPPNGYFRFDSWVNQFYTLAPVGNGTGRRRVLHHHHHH
Experiment: Western blot of denatured VP1 domains

B1: KVP-12B8 (VHH)
VHH: EVQLVESGGGSVQSGGSLRLSCAASGYPFSDNAMGWYRQAPGNQRELVATITNSNSTKYADSVKGRFTISRDSAKNTIYLEMNSLKPEDTAIYYCRIERTGRTSIKWTYWGQGTQVTVSS
notes: Llama VHH (nanoantibody) expressed in E. coli from pMEK222 (FLAG tag and His tag); also called IC VP-12B8; not shown: FLAG tag and His tag from vector pMEK222
  binding result: no binding (tested: 10 µg/ml)

B2: KVP-7C6 (VHH)
VHH: EVQLVESGGGLVQAGGSLRLSCAASGRTFGPNVMGWYRQAPGKQRELVASKTSGRLSNYADSVKGRFAISRDFAKNTLYLQMNNLRPDDTAVYYCRLWDSARSTEYWGQGTQVTVSS
notes: Llama VHH (nanoantibody) expressed in E. coli from pMEK222 (FLAG tag and His tag); not shown: FLAG tag and His tag from vector pMEK222
  binding result: no binding (tested: 10 µg/ml)
